Assay results from patent US11130803B2, “Isoform-selective TGFβ1 inhibitors and use thereof” (Scholar Rock, Inc., priority 2018, dated 2021).
Where two headings read alike, the source gives them in different places.

Legend:
[1] = target: T1, recombinant human GARP-proTGFβ1 complex (Homo sapiens, UniProt P01137); experiment: Octet (Biolayer Interferometry) in vitro kinetic binding; conditions: in M
T1 construct: made in house
Method in brief: (§1)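 Antibody binding kinetics (KD) were determined by biolayer interferometry (Octet QKe) using streptavidin-coated biosensors. Biotinylated human presenting molecule–proTGFβ1 complexes were presented at […].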

[2] = target: T2, recombinant human LTBP1-proTGFβ1 complex (Homo sapiens, UniProt P01137); experiment: as above; conditions: in M
T2 construct: made in house; host or cells: Expi293F cells, transient co-transfection
T2 sequence (P01137 30-390): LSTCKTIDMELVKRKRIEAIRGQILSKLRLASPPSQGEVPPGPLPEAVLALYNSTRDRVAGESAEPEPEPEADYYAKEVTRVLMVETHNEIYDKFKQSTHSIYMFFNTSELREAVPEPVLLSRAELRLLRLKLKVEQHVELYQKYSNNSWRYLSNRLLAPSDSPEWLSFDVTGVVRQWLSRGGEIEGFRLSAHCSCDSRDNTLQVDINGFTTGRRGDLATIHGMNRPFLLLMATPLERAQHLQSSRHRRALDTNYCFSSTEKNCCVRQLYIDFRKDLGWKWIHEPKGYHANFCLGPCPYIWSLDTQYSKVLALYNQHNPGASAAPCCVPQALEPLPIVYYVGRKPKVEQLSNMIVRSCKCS
T2 sequence (Q14766 873-1507 partner): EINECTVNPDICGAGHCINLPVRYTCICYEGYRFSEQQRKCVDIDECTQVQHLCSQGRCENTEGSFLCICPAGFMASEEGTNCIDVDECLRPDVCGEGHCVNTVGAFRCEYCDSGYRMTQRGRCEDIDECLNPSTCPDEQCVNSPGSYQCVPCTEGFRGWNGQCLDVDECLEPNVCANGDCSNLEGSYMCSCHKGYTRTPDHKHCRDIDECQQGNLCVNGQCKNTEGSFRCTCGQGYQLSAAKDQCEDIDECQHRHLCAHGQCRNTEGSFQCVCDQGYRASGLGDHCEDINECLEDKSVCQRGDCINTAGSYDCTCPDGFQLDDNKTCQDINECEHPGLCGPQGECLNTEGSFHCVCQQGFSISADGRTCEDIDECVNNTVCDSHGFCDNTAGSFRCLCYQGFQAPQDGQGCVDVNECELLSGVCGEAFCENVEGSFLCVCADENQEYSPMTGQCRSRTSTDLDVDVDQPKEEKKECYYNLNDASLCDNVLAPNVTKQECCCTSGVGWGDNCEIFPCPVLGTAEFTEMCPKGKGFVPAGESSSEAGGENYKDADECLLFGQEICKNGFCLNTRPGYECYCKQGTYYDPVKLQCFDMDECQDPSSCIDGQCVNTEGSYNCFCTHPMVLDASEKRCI
Method in brief: as §1

[3] = target: T3, recombinant human LTBP3-proTGFβ1 complex (Homo sapiens, UniProt P01137); experiment: as above; conditions: in M
T3 construct: made in house; host or cells: Expi293F cells, transient co-transfection
T3 sequence (P01137 30-390): as the sequence (P01137 30-390) above
T3 sequence (Q9NS15 866-1039 partner limits assumed): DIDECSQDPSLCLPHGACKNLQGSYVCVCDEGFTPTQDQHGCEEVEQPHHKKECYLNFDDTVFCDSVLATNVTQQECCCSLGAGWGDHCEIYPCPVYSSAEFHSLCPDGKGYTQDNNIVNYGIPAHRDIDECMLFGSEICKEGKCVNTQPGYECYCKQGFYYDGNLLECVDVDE
Method in brief: as §1

[4] = target: T4, recombinant human LRRC33-proTGFβ1 complex (Homo sapiens, UniProt P01137); experiment: as above; conditions: in M
T4 construct: made in house
T4 sequence (P01137 30-390): as the sequence (P01137 30-390) above
T4 sequence (Q86YC3 19-650 partner limits assumed): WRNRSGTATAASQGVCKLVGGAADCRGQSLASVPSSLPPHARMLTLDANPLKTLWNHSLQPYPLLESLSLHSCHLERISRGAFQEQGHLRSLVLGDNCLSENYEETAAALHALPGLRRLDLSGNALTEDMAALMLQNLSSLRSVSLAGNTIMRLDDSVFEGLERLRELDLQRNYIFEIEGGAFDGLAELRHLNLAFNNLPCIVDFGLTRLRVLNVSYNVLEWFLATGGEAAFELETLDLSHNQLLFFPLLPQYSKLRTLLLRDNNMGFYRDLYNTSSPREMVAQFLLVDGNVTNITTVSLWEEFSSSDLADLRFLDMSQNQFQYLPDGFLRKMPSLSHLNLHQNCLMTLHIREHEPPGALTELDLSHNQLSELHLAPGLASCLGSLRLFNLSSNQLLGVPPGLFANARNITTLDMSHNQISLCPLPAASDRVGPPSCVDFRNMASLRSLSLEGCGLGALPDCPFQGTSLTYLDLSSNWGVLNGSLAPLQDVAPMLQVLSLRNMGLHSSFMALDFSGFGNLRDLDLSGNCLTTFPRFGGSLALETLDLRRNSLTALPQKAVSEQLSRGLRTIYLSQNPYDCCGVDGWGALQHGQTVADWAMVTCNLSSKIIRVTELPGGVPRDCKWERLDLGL
Method in brief: as §1

[5] = test system: hLTBP1-/hLTBP3-proTGFβ1 vs hGARP-/hLRRC33-proTGFβ1 complexes; experiment: Solution equilibrium titration: relative affinity (bias) LTBP complexes vs cell-associated complexes; assay type: binding, human; conditions: MSD-SET
Source text: Context-biased: As used herein, “context-biased antibodies” refer to a type of conformational antibodies that binds an antigen with differential affinities when the antigen is associated with (i.e., bound to or attached to) an interacting protein or a fragment thereof. Thus, a context-biased antibody that specifically binds an epitope within proTGFβ1 may bind LTBP1-proTGFβ1, LTBP3-proTGFβ1, GARP-proTGFβ1 and LRRC33-proTGFβ1 with different affinities. […] Relative affinities of [matrix-associated complexes]: [cell-associated complexes] may be obtained by taking average KD values of the former, taking average KD values of the latter, and calculating the ratio of the two, as exemplified herein.
In a yet further aspect, the present disclosure provides context-biased TGFβ1 inhibitors. The context-biased antibodies include LTBP-biased antibodies with higher affinities for ECM-associated LLCs than for cell-associated LLCs wherein the affinities are measured at equilibrium.

[6] = test system: matrix-associated (LTBP1/LTBP3) and cell-associated (GARP/LRRC33) proTGFβ1 complexes; experiment: Octet: average KD and fold bias, matrix- vs cell-associated complexes; assay type: binding, human; conditions: average KD of (B) and (C), read-out: (D) ECM AVRG
[7] = test system: matrix-associated (LTBP1/LTBP3) and cell-associated (GARP/LRRC33) proTGFβ1 complexes; experiment: as above; assay type: binding, human
Method in brief: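 Monoclonal antibodies were measured for binding affinity, expressed as KD, to cell-surface or cell-associated proTGFβ1 complexes (GARP and LRRC33). The KD values for the two complexes were averaged to give one value for cell-associated affinity. That average was then divided by the matrix-associated average to express fold bias between the complex types.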

[8] = ratio of average KD cell-associated / matrix-associated

T1 sequence (P01137 30-390): as the sequence (P01137 30-390) above
T1 sequence (Q14392 20-627 partner limits assumed): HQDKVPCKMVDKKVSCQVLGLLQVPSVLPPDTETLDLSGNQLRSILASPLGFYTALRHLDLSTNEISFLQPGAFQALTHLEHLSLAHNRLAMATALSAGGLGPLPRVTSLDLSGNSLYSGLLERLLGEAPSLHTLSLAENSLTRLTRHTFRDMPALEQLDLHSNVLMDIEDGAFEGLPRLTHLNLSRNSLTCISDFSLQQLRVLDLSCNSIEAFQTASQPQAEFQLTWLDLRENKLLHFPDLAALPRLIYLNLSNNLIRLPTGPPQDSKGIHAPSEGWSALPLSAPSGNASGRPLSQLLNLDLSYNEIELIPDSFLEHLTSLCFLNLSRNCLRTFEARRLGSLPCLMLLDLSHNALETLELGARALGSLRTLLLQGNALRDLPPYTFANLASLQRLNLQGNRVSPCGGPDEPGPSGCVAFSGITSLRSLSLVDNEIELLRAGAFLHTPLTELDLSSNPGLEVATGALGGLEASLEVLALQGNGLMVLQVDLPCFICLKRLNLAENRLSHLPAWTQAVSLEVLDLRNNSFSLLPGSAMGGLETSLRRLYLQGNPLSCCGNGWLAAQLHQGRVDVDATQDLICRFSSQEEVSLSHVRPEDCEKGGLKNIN

B1: Ab19: monoclonal antibody; VH SEQ ID NO: 250, VL SEQ ID NO: 241 (antibody, V domains shown)
VH: QVQLVESGGGVVQPGRSLRLSCAASGFTFSSFAMTWVRQAPGKGLEWVSAISGSGAATYFADSVKGRFTISRDNSKNTLYLQMNSLRAEDTAVYYCARVSSGHWDFDEWGQGTLVTVSS
VL: DIQLTQSPSSLSASVGDRVTITCRASQSISSYLNWYQQKPGKAPKLLIYAASNLQSGVPSRFSGSGSGTDFTLTISSLQPEDFATYYCQQTYTVPLTFGGGTKVEIK
(E) hGARP, Cell-associated proTGFb1 (KD) [1]: 1.12E−08 | (B) hLTBP1, Matrix-associated proTGFb1 (KD) [2]: 1.89E−10 | (C) hLTBP3, Matrix-associated proTGFb1 (KD) [3]: 1.56E−10 | (F) hLRRC33, Cell-associated proTGFb1 (KD) [4]: 6.92E−10 | Kd ([5]; average KD of (B) and (C), read-out: (D) ECM AVRG): 2.83 nM | Kd ([5]; average KD of (E) and (F), read-out: (G) Cell AVRG): 4.75 nM | (H) G/D (fold bias) [5, 8]: 1.68 fold | Kd [6]: 0.172 nM | Kd ([7]; average KD of (E) and (F), cell-associated complexes, read-out: (G) Cell AVRG): 5.95 nM | (H) G/D (fold bias) [7, 8]: 34.47 fold
